# Measurements: the supplement of paper PMC12042874
# ± gives the uncertainty stated by the source.
# Assay: amyloid nucleation score (Sup35N fusion, yeast selection) (log enrichment); library NNK3; higher = more nucleation; inactive = no reads after selection
# Method in brief: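 After 24 hours of induction with 100 μM copper sulfate, psi-negative yeast expressing peptides of 20 random codons fused to Sup35N were grown for 7 days at 30°C on medium lacking adenine and uracil. Input and output plasmid inserts were sequenced with Illumina, and sequences with under 100 input reads were discarded. Scores for nucleation are the DiMSum log enrichment of output over input reads, centred on the mode score of non-aggregating sequences.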
row,Substance,amyloid nucleation score
1,FTGKRSALGCIGVCILF,-0.598 ± 1.2
2,QMKKLWFF,inactive
3,SFSCYCTLLGLSVHYVNPTV,1.82 ± 0.1
4,LWPIGIFKKCYVDRICYYCV,inactive
5,LRVFWRTFCVSWSECNKMLE,inactive
6,FTQCNEAGCWHESDTNFMQC,0.109 ± 0.75
7,RSVTNGQSCLRTVGILSFLA,inactive
8,REFKY,inactive
9,NLQERAL,-0.438 ± 0.88
10,KTFMSCFGMGKEEGLSHFPR,inactive
11,ISVSRKLLKCLVKCMNPGCG,inactive
12,LPVEMKLLIMMRVPSFHFRH,inactive
13,HRPRLGI,inactive
14,CFLYLLLQTN,inactive
15,LVCDHGSCVKMVIMTDFMSS,inactive
16,HNASGCWWDSALPITFRRLG,inactive
17,VIKTLTHSFHLTNGFGTSYI,inactive
18,NHNPVCGVDNRMKVVRLYYV,inactive
19,KYNANYQSSYNIVRLYRVFW,inactive
20,HSSVSMGLVGGSTE,inactive
21,EIRTRPKRSVVGSRVSMGVS,inactive
22,LSVVTSTHEDASSLNTTRWM,inactive
23,SEHFRN,inactive

row,Substance,amyloid nucleation score
1,IDNMMYVV,inactive
2,DFGMVLSNRFKTMKDCSYFC,0.785 ± 0.23
3,LRWIGH,inactive
4,FYSSSL,inactive
5,MYNNC,inactive
6,FFVSDKLVFSNTLLQKNKSP,0.881 ± 0.19
7,RYDCRQPIAEFVVWAV,inactive
8,ESQISEN,inactive
9,IMNHLLSRVVCFLDKIVHMG,inactive
10,NHFAAMLSCFSSRVVVTYQA,inactive
11,DFYIIDSLIRMCMRICEFVL,inactive
12,YGVYINEAVEVRGPHAYMTS,inactive
13,KPNLRFLS,inactive
14,LPGINCARHK,-0.918 ± 1.4
15,VFYFDSFRICSYVVLYGHMA,0.601 ± 0.28
16,PGDFISDEAMDSNVYFRLQS,-0.693 ± 0.8
17,YSVSEIRKSHLWITINMAVF,inactive
18,YNDWQKEMCIITICVL,inactive
19,ICGMLR,inactive
20,SHVSQMWSGYAGNKEEPTAW,0.928 ± 0.19
21,DMSHMIEICFVTNYTKGYVT,inactive
22,RSLHWNLGLCIWYNEFRDLM,1.8 ± 0.074
23,DLYIYCFWLDMVITVCKRQK,inactive

row,Substance,amyloid nucleation score
1,TAALRIDDQRKAYLGVPRFS,inactive
2,SDPVPVMDIALYLVNPQLPS,inactive
3,RKPHMTL,inactive
4,NTCMQPCLSRVCFELDVGCR,inactive
5,VWLILRFMWAVVRTNRSNLD,inactive
6,YVIVLNR,2.3 ± 0.069
7,GSHELHWSVGYQESVLLRYH,inactive
8,IGSNRRSFEVCTYIASKIPL,inactive
9,VVGIKV,inactive
10,YIHIY,inactive
11,RSIVNSRALGLAADRRLEFS,inactive
12,TRSIVY,inactive
13,FEFYTMWSIWARVLFPLKIY,inactive
14,FVYFNT,inactive
15,GPHIVRYERTFNG,inactive
16,RFWFWQPVVYIIRWIRVPLA,inactive
17,IHGPGCRSCERSSVGLRSGL,inactive
18,VNFSYNYVGWCFMQLCSAAN,1.74 ± 0.086
19,TMVICLSLLRNMILHF,inactive
20,RFSYSDTI,inactive
21,MCRMRSW,inactive
22,VCIWSIETNVCSGCVKIKGF,inactive
23,FAYQFRLVDTSLSDF,inactive

row,Substance,amyloid nucleation score
1,PYETGRKCNA,inactive
2,QWILHNFTVGARPGPVRTKE,inactive
3,CNYPKFHWLGRSVIKFIDFL,inactive
4,PVNFFKKFMSAMEVRYHRTK,-0.046 ± 0.38
5,AVVLFLGTLQLGCLGLIVQL,-0.424 ± 0.75
6,YICVKYEVYNFTFYFVSGFW,inactive
7,LGAAFCAPSSSYGKMGP,inactive
8,VWLFVSSMEYTNGTYQHHMM,inactive
9,IRGDGCTGARSPTTSRAAGN,inactive
10,SCSSCYIELKWLYLRILLDC,inactive
11,GKISVMYEMIYNLTNYDGRL,inactive
12,TAFNHRMPGDLWRDDGGARV,0.784 ± 0.24
13,LLDYRPKTGNCRVQIRLCVV,inactive
14,GVWVA,-0.931 ± 1.9
15,RFIGGTYH,inactive
16,VLSRSKRTGISNYLCNLCEI,inactive
17,LIQPFFWCHCHDLAVDESGE,1.66 ± 0.11
18,FWLTNISFDLKFKINSSEFT,0.205 ± 0.33
19,NPLDSLYLIDIFAHSSASEL,inactive
20,WFLVNRDWFLGCQVTGEVLI,inactive
21,GLLVTTPMLKLNYFNVLDLG,0.99 ± 0.1
22,PSLRRTSLGSLKSSMANSWQ,inactive
23,LFSELKISSVWCDL,inactive

row,Substance,amyloid nucleation score
1,WSTLKMVRVCYGASFSNVYM,inactive
2,NSNYSVG,inactive
3,YQYCSISKHVFEWYGTSWMG,inactive
4,RPEAAYSVKYLVLV,inactive
5,QRISMIALDRFD,inactive
6,TTLVGHASPVKAMTGTFTWH,inactive
7,NCNKMCRSCFRCQKTFWVWF,inactive
8,RRVNFVNYSLWV,1.6 ± 0.1
9,RWSVCSCYSWERSGSRSQ,inactive
10,LCFARGLRCTSSVAVESGD,inactive
11,LVSLLVWPYLAWCQGCYSVE,inactive
12,EVKDAWIMSYSLNYWQRLYM,inactive
13,FVSDRSSGYTGMLIKDAL,inactive
14,SPGPFR,inactive
15,SSCSSDLAKQYGDMTFI,inactive
16,YGMDIIWW,inactive
17,VQGIRFRELFGRPAVRVVWH,inactive
18,YFGDPVLNASLVIVLHLYWL,1.21 ± 0.078
19,VPNSRIVTREGCWESACGIR,inactive
20,LLNCGLMLLRIDVCRATYYV,1.36 ± 0.14
21,ILLIWCIFTSAKFQQTSFMT,inactive
22,HNASKRMDICKASSVYKWRI,inactive
23,PWLSVSRVVVGRSLDGNNCP,inactive

row,Substance,amyloid nucleation score
1,RAFLL,inactive
2,SYCKATRSVRQSNSARVVVR,inactive
3,SRITYEGQSRGCTLGNGLKR,inactive
4,RVLSCECKVGRKWICTELFV,inactive
5,PGIIGTSNSFYQCVMWQVFG,2.13 ± 0.063
6,QRNNFLLTMVTCFDLKL,inactive
7,GIELAVFYCHYIRVGSDVY,inactive
8,FGSGRVSQLVRYDSFLEEFL,inactive
9,LNSLLY,inactive
10,NHSVNAARNLQHQSYCKKSV,inactive
11,VKWLLGMSEWKG,-0.877 ± 2.4
12,RQIMGQKRKNRQESFGFVGC,inactive
13,FGFFWP,inactive
14,SLCMVTLDKAIRLYYNPMYF,2.18 ± 0.08
15,IPFTENSVPPFKGLTVSSNV,inactive
16,IDFIVLSSL,inactive
17,VLGNRRFSGLFGEYQGKTTG,-0.593 ± 1.1
18,TVMLWAWEGRWYVRFVSPDR,inactive
19,KIFSSLFRK,0.251 ± 0.18
20,FICILIISKGSIVPFFLRHR,inactive
21,TWIMALLMILFNKVFVSSTR,inactive
22,VSTSFDFKWNLSLGIWFMVI,inactive
23,SVQLGIKNVITLRSYVYKTW,-0.208 ± 0.6

row,Substance,amyloid nucleation score
1,NCLVVTGRKVPSETHLVFLM,inactive
2,HKLYEWACSRSTALNYIGQI,inactive
3,FCVPKCYSHWYLVFS,1.03 ± 0.12
4,HYEVRGVLFAMPPCGNI,inactive
5,YEMIKFSKY,inactive
6,YYVVGQPAASQK,inactive
7,LLLTDSMSHLRFSHNSCMQQ,0.868 ± 0.17
8,STPSLGTSF,inactive
9,YYGFYTNYFMCGV,2.77 ± 0.062
10,IWYRDSFLPSGRYWFLRINW,inactive
11,VFCHTAIL,inactive
12,RSGKVSFFIGYNVVGLMRFR,inactive
13,FVKKRLVKGKNFFIELFLMC,inactive
14,SVRRYRSYLVLRRRTGHDRN,inactive
15,YTDWGYDLRNGAGNGYIT,inactive
16,SFEYHNWNDM,0.361 ± 0.18
17,RGCGVQMS,0.882 ± 0.24
18,HSEADDSLTGYFALVATRVF,inactive
19,SGCYNYFCGFLLKYSMYVSL,inactive
20,GIGILEVWVSVRYGSWFKRI,inactive
21,CIVMG,inactive
22,ALSVSSLALANDDVTG,inactive
